Experimental data: patent US20180086804A1 (COMMISSARIAT A L ENERGIE ATOMIQUE ET AUX ENERGIES …, published 2018)
No end group written: not given here.

The binders below were run against T1, HLA-DR7 (HLA-DRB1*07:01) (human) (assay: competition ELISA vs biotin-YKL).
T1 construct: mature; purified from homozygous EBV-transformed lymphoblastoid cells with antibody L243
Binder HQIRQMEMKILRALN-NH2 [CCNB1 280-294] has a relative affinity of 462.

The binders below were run against T2, HLA-DRB4 (HLA-DRB4*01:01) (human) (assay: competition ELISA vs biotin-E2/E168).
T2 construct: mature; purified from homozygous EBV-transformed lymphoblastoid cells with antibody L243
Binder REVTGNMRAILIDWL-NH2 [CCNB1 195-209] has a relative affinity of 23.
PNLCSEYVKDIYAYL-NH2 [CCNB1 164-178] gave a relative affinity of 40.
MELTMLDYDMVHFPP-NH2 [CCNB1 327-341] gave a relative affinity of 139.
With EKLSPEPILVDTASP-NH2 [CCNB1 113-127] the relative affinity was 231.

Target: T2, HLA-DRB4 (HLA-DRB4*01:01)
Assay: competition ELISA vs biotin-E2/E168
Remark: another data set of the same source
Binder ETMYMTVSIIDRFMQ-NH2 [CCNB1 221-235] has a relative affinity of 7.
DWLVQVQMKFRLLQE-NH2 [CCNB1 207-221] gave a relative affinity of 49.
VQMKFRLLQETMYMT-NH2 [CCNB1 212-226] showed a relative affinity of 683.

What follows are binders tested against T3, HLA-DR3 (HLA-DRB1*03:01) (human) (assay: competition ELISA vs biotin-MT 2-16).
T3 construct: mature; purified from homozygous EBV-transformed lymphoblastoid cells with antibody L243
Work on ETMYMTVSIIDRFMQ-NH2 [CCNB1 221-235] yielded a relative affinity of 0.5.
For DWLVQVQMKFRLLQE-NH2 [CCNB1 207-221], the relative affinity was 0.5.
VQMKFRLLQETMYMT-NH2 [CCNB1 212-226] showed a relative affinity of 1.

The binders below were run against T4, HLA-DP402 (HLA-DPB1*04:02) (human, UniProt P20036 29-222) (assay: competition ELISA vs biotin-Oxy 271-287).
T4 construct: mature; purified from homozygous EBV-transformed lymphoblastoid cells with antibody B7/21
With ETMYMTVSIIDRFMQ-NH2 [CCNB1 221-235] the relative affinity was 68.
Work on DWLVQVQMKFRLLQE-NH2 [CCNB1 207-221] yielded a relative affinity of 171.
In the case of VQMKFRLLQETMYMT-NH2 [CCNB1 212-226], the relative affinity is reported as 9.

These binders were tested against T5, HLA-DP401 (HLA-DPB1*04:01) (human, UniProt P20036 29-222) (assay: competition ELISA vs biotin-Oxy 271-287).
T5 construct: mature; purified from homozygous EBV-transformed lymphoblastoid cells with antibody B7/21
For ETMYMTVSIIDRFMQ-NH2 [CCNB1 221-235], the relative affinity was 59.
Binder VQMKFRLLQETMYMT-NH2 [CCNB1 212-226] has a relative affinity of 110.

The binders below were run against T6, HLA-DR11 (HLA-DRB1*11:01) (human) (assay: competition ELISA vs biotin-HA 306-318;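 note: HLA and competitor incubated 24 to 72 h, maximal signal taken from wells lacking competitor, background from wells lacking HLA molecule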).
T6 construct: mature; purified from homozygous EBV-transformed lymphoblastoid cells with antibody L243
HQIRQMEMKILRALN-NH2 [CCNB1 280-294] gave a relative affinity of 2000.

These binders were tested against T7, HLA-DRB5 (HLA-DRB5*01:01) (human) (assay: competition ELISA vs biotin-HA 306-318;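 note: HLA and competitor incubated 24 to 72 h, maximal signal taken from wells lacking competitor, background from wells lacking HLA molecule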).
T7 construct: mature; purified from homozygous EBV-transformed lymphoblastoid cells with antibody L243
HQIRQMEMKILRALN-NH2 [CCNB1 280-294] showed a relative affinity of 4.

The binders below were run against T8, HLA-DR4 (HLA-DRB1*04:01) (human) (assay: competition ELISA vs biotin-HA 306-318;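 note: HLA and competitor incubated 24 to 72 h, maximal signal taken from wells lacking competitor, background from wells lacking HLA molecule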).
T8 construct: mature; purified from homozygous EBV-transformed lymphoblastoid cells with antibody L243
For HQIRQMEMKILRALN-NH2 [CCNB1 280-294], the relative affinity was 0.4.

These binders were tested against T9, HLA-DR1 (HLA-DRB1*01:01) (human) (assay: competition ELISA vs biotin-HA 306-318;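 note: HLA and competitor incubated 24 to 72 h, maximal signal taken from wells lacking competitor, background from wells lacking HLA molecule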).
T9 construct: mature; class II HLA molecule purified from homozygous EBV-transformed lymphoblastoid cells with antibody L243
Work on HQIRQMEMKILRALN-NH2 [CCNB1 280-294] yielded a relative affinity of 1220.

Each binder was assayed against T10, HLA-DRB3 (HLA-DRB3*01:01) (human) (assay: competition ELISA vs biotin-LOL 191-210).
T10 construct: mature; purified from homozygous EBV-transformed lymphoblastoid cells with antibody L243
For ETMYMTVSIIDRFMQ-NH2 [CCNB1 221-235], the relative affinity was 22.
For DWLVQVQMKFRLLQE-NH2 [CCNB1 207-221], the relative affinity was 160.
Work on VQMKFRLLQETMYMT-NH2 [CCNB1 212-226] yielded a relative affinity of 34.

Target: T10, HLA-DRB3 (HLA-DRB3*01:01)
Assay: competition ELISA vs biotin-LOL 191-210
Remark: another data set of the same source
HQIRQMEMKILRALN-NH2 [CCNB1 280-294] was tested, and the relative affinity was 53.

These binders were tested against T11, HLA-DR13 (HLA-DRB1*13:01) (human) (assay: competition ELISA vs biotin-B1 21-36).
T11 construct: mature; purified from homozygous EBV-transformed lymphoblastoid cells with antibody L243
REVTGNMRAILIDWL-NH2 [CCNB1 195-209] gave a relative affinity of 45.

Target: T4, HLA-DP402 (HLA-DPB1*04:02)
Assay: competition ELISA vs biotin-Oxy 271-287
Remark: another data set of the same source
In the case of REVTGNMRAILIDWL-NH2 [CCNB1 195-209], the relative affinity is reported as 791.
In the case of PNLCSEYVKDIYAYL-NH2 [CCNB1 164-178], the relative affinity is reported as 625.
MELTMLDYDMVHFPP-NH2 [CCNB1 327-341] was tested, and the relative affinity was 47.
Binder EKLSPEPILVDTASP-NH2 [CCNB1 113-127] has a relative affinity of 71.

Target: T5, HLA-DP401 (HLA-DPB1*04:01)
Assay: competition ELISA vs biotin-Oxy 271-287
Remark: another data set of the same source
REVTGNMRAILIDWL-NH2 [CCNB1 195-209] gave a relative affinity of 725.
With PNLCSEYVKDIYAYL-NH2 [CCNB1 164-178] the relative affinity was 274.
MELTMLDYDMVHFPP-NH2 [CCNB1 327-341] showed a relative affinity of 2.
For EKLSPEPILVDTASP-NH2 [CCNB1 113-127], the relative affinity was 72.

Target: T10, HLA-DRB3 (HLA-DRB3*01:01)
Assay: competition ELISA vs biotin-LOL 191-210
Remark: another data set of the same source
In the case of REVTGNMRAILIDWL-NH2 [CCNB1 195-209], the relative affinity is reported as 20.
For PNLCSEYVKDIYAYL-NH2 [CCNB1 164-178], the relative affinity was 53.
Binder EKLSPEPILVDTASP-NH2 [CCNB1 113-127] has a relative affinity of 151.

Target: T6, HLA-DR11 (HLA-DRB1*11:01)
Assay: competition ELISA vs biotin-HA 306-318
Remark: another data set of the same source
Binder ETMYMTVSIIDRFMQ-NH2 [CCNB1 221-235] has a relative affinity of 1.
Binder DWLVQVQMKFRLLQE-NH2 [CCNB1 207-221] has a relative affinity of 0.4.
VQMKFRLLQETMYMT-NH2 [CCNB1 212-226] was tested, and the relative affinity was 5.

Target: T7, HLA-DRB5 (HLA-DRB5*01:01)
Assay: competition ELISA vs biotin-HA 306-318
Remark: another data set of the same source
With ETMYMTVSIIDRFMQ-NH2 [CCNB1 221-235] the relative affinity was 1.
For DWLVQVQMKFRLLQE-NH2 [CCNB1 207-221], the relative affinity was 5.
Work on VQMKFRLLQETMYMT-NH2 [CCNB1 212-226] yielded a relative affinity of 2.

Target: T8, HLA-DR4 (HLA-DRB1*04:01)
Assay: competition ELISA vs biotin-HA 306-318
Remark: another data set of the same source
ETMYMTVSIIDRFMQ-NH2 [CCNB1 221-235] gave a relative affinity of 37.
In the case of VQMKFRLLQETMYMT-NH2 [CCNB1 212-226], the relative affinity is reported as 2.

Target: T9, HLA-DR1 (HLA-DRB1*01:01)
Assay: competition ELISA vs biotin-HA 306-318
Remark: another data set of the same source
In the case of ETMYMTVSIIDRFMQ-NH2 [CCNB1 221-235], the relative affinity is reported as 89.
Binder DWLVQVQMKFRLLQE-NH2 [CCNB1 207-221] has a relative affinity of 38.
Work on VQMKFRLLQETMYMT-NH2 [CCNB1 212-226] yielded a relative affinity of 1.

Target: T3, HLA-DR3 (HLA-DRB1*03:01)
Assay: competition ELISA vs biotin-MT 2-16
Remark: another data set of the same source
Binder HQIRQMEMKILRALN-NH2 [CCNB1 280-294] has a relative affinity of 0.2.

Target: T3, HLA-DR3 (HLA-DRB1*03:01)
Assay: competition ELISA vs biotin-MT 2-16
Remark: another data set of the same source
REVTGNMRAILIDWL-NH2 [CCNB1 195-209] showed a relative affinity of 1.
With MELTMLDYDMVHFPP-NH2 [CCNB1 327-341] the relative affinity was 32.
Binder EKLSPEPILVDTASP-NH2 [CCNB1 113-127] has a relative affinity of 6.

The binders below were run against T12, HLA-DR15 (HLA-DRB1*15:01) (human) (assay: competition ELISA vs biotin-A3 152-166).
T12 construct: mature; purified from homozygous EBV-transformed lymphoblastoid cells with antibody L243
HQIRQMEMKILRALN-NH2 [CCNB1 280-294] was tested, and the relative affinity was 0.3.

Target: T6, HLA-DR11 (HLA-DRB1*11:01)
Assay: competition ELISA vs biotin-HA 306-318
Remark: another data set of the same source
Work on REVTGNMRAILIDWL-NH2 [CCNB1 195-209] yielded a relative affinity of 1180.
MELTMLDYDMVHFPP-NH2 [CCNB1 327-341] was tested, and the relative affinity was 216.

Target: T7, HLA-DRB5 (HLA-DRB5*01:01)
Assay: competition ELISA vs biotin-HA 306-318
Remark: another data set of the same source
Binder REVTGNMRAILIDWL-NH2 [CCNB1 195-209] has a relative affinity of 1410.
PNLCSEYVKDIYAYL-NH2 [CCNB1 164-178] gave a relative affinity of 500.

Target: T8, HLA-DR4 (HLA-DRB1*04:01)
Assay: competition ELISA vs biotin-HA 306-318
Remark: another data set of the same source
For REVTGNMRAILIDWL-NH2 [CCNB1 195-209], the relative affinity was 260.
With PNLCSEYVKDIYAYL-NH2 [CCNB1 164-178] the relative affinity was 527.
With MELTMLDYDMVHFPP-NH2 [CCNB1 327-341] the relative affinity was 22.
Binder EKLSPEPILVDTASP-NH2 [CCNB1 113-127] has a relative affinity of 55.

Target: T9, HLA-DR1 (HLA-DRB1*01:01)
Assay: competition ELISA vs biotin-HA 306-318
Remark: another data set of the same source
REVTGNMRAILIDWL-NH2 [CCNB1 195-209] gave a relative affinity of 55.
PNLCSEYVKDIYAYL-NH2 [CCNB1 164-178] was tested, and the relative affinity was 2830.
With MELTMLDYDMVHFPP-NH2 [CCNB1 327-341] the relative affinity was 418.
For EKLSPEPILVDTASP-NH2 [CCNB1 113-127], the relative affinity was 6000.

Target: T12, HLA-DR15 (HLA-DRB1*15:01)
Assay: competition ELISA vs biotin-A3 152-166
Remark: another data set of the same source
REVTGNMRAILIDWL-NH2 [CCNB1 195-209] gave a relative affinity of 30.
With PNLCSEYVKDIYAYL-NH2 [CCNB1 164-178] the relative affinity was 28.
MELTMLDYDMVHFPP-NH2 [CCNB1 327-341] was tested, and the relative affinity was 10.

Target: T1, HLA-DR7 (HLA-DRB1*07:01)
Assay: competition ELISA vs biotin-YKL
Remark: another data set of the same source
In the case of ETMYMTVSIIDRFMQ-NH2 [CCNB1 221-235], the relative affinity is reported as 1.
DWLVQVQMKFRLLQE-NH2 [CCNB1 207-221] was tested, and the relative affinity was 7.
Work on VQMKFRLLQETMYMT-NH2 [CCNB1 212-226] yielded a relative affinity of 40.

Target: T12, HLA-DR15 (HLA-DRB1*15:01)
Assay: competition ELISA vs biotin-A3 152-166
Remark: another data set of the same source
ETMYMTVSIIDRFMQ-NH2 [CCNB1 221-235] gave a relative affinity of 0.3.
With DWLVQVQMKFRLLQE-NH2 [CCNB1 207-221] the relative affinity was 7.
In the case of VQMKFRLLQETMYMT-NH2 [CCNB1 212-226], the relative affinity is reported as 46.

Target: T11, HLA-DR13 (HLA-DRB1*13:01)
Assay: competition ELISA vs biotin-B1 21-36
Remark: another data set of the same source
In the case of ETMYMTVSIIDRFMQ-NH2 [CCNB1 221-235], the relative affinity is reported as 59.
DWLVQVQMKFRLLQE-NH2 [CCNB1 207-221] showed a relative affinity of 1.
Binder VQMKFRLLQETMYMT-NH2 [CCNB1 212-226] has a relative affinity of 1.

Target: T1, HLA-DR7 (HLA-DRB1*07:01)
Assay: competition ELISA vs biotin-YKL
Remark: another data set of the same source
In the case of PNLCSEYVKDIYAYL-NH2 [CCNB1 164-178], the relative affinity is reported as 73.
